# Data taken from patent US20130231286A1, “Use of Prolactin Receptor Antagonist and Chemotherapeutic Drug for Treating Ovarian Cancer” (ONCOLIX, INC., priority 2010, published 2013).
# B1: G129R: prolactin receptor antagonist: human prolactin in which glycine at position 129 is substituted with arginine (protein)
# chain: LPICPGGAARCQVTLRDLFDRAVVLSHYIHNLSSEMFSEFDKRYTHGRGFITKAINSCHTSSLATPEDKEQAQQMNQKDFLSLIVSILRSWNEPLYHLVTEVRGMQEAPEAILSKAVEIEEQTKRLLERMELIVSQVHPETKENEIYPVWSGLPSLQMADEESRLSAYYNLLHCLRRDSHKIDNYLKLLKCRIIHNNNC
# What was measured:
# [1] = system: mouse ovarian cancer cells ID8; test: Mouse ovarian cancer cells ID8 injected intraperitoneally in SCID mice: tumors and secondary nodules; assay type: in vivo; settings: 52 days, G129R 100 ug daily, DCT 25 ug weekly
# Description: SCID mice were injected with one million mouse ovarian cancer cells ID8 intraperitoneally on day 1.
# All mice were treated for 52 days and then sacrificed, and tumors from every experimental group were weighted.
# The effect of G129R and the G129R+DCT combination on the ability of mouse ovarian cancer cells to metastasize was also studied.
# [2] = system: human ovarian cancer cells SKOV3; test: Human ovarian cancer cells SKOV3 injected intraperitoneally in SCID mice: tumors and secondary nodules; assay type: in vivo, mouse; settings: 38 days, G129R 100 ug daily, DCT 25 ug weekly
# Description: SCID mice (laboratory experimental animals that lack both T and B lymphocytes) were injected with one million human ovarian cancer cells SKOV3 intraperitoneally on day 1.
# All mice were treated for 38 days and then sacrificed, and tumors from every experimental group were weighted.
# The effect of G129R and the G129R+DCT combination on the ability of human ovarian cancer cells to metastasize was also studied.
# [3] = system: mammary HER2+ adenocarcinomas of MMTV/neu transgenic mice; test: ALDH1 activity in tumor cells isolated from treated MMTV/neu transgenic mice; assay type: in vivo, mouse
# Description: MMTV/neu transgenic mice carry an activated c-neu oncogene driven by a mouse mammary tumor virus (MMTV) promoter and develop mammary HER2^+ adenocarcinomas (Muller et al. 1988. Cell. 54(1):105-15). MMTV/neu transgenic mice bearing mammary tumors were treated with PBS (n=4) or G129R for 5 (n=2) or 10 (n=3) days (10 mg/kg, i.p.). The tumors were isolated at the end of treatment, digested to a single cell suspension, and ALDH1 activity levels were compared.
# [4] = system: phosphorylated Neu protein; test: Phosphorylation of Neu protein in primary and secondary tumors (western blotting); assay type: in vivo, mouse; settings: 200 ug per day for 5 days, vs PBS
# Description: MMTV/neu mice (bearing primary and secondary tumors) were treated either with PBS (control) or with 200 ug of G129R per day for 5 days. Primary and secondary tumors were removed 24 hours following the 5th treatment and processed for western blotting.
# [5] = system: phosphorylated HER2/neu protein; test: Time-dependent response of phosphorylated HER2/neu in tumors in vivo (western blot); parameters: species or system mouse; settings: 10 mg/kg/day i.p.
# Description: To determine an optimal length of treatment with G129R, MMTV tumor-bearing mice were treated with 200 ug G129R for either five or ten days. Tumors were removed 24 hours after the last treatment and processed for western blot analysis. […] As also can be seen in FIG. 8, of 10 mice receiving a 10 day treatment of G129R (10 mg/kg/day, i.p.), tumors from 3 mice were highly responsive and virtually no phosphorylated HER2/neu was detected in these tumors, 5 mice were moderately responsive and 2 mice were nonresponsive.
# [6] = system: Human triple-negative breast cancer cells MDA-MB-231; test: ALDH1 activity (ALDEFLUOR fluorescent assay) in triple-negative breast cancer cells; assay type: cell-based; settings: MDA-MB-231, G129R 10 ug/ml, three days, vs control
# Description: Human triple-negative breast cancer cells MDA-MB-231 and control breast cancer cells T-47D were plated in 6 well plates at 1×10^5 cells/ml, and allowed to adhere for 24 hours in growth media followed by 2 hours of serum free media depletion. The cells were then cultured either without (control) or with prolactin (100 ng/ml) or G129R (10 ug/ml) for three days. The cells were then collected and the ALDH-1 activity (this enzyme is a marker for cancer stem cells. See Ginestier et al., Cell Stem Cell 2007 1(5): 555-567) was measured by ALDEFLUOR^R fluorescent assay (StemCell Technologies).
# [7] = system: Primary mammary tumor cells isolated from MMTV/neu transgenic mouse; test: ALDH1 activity in cultured primary MMTV/neu mammary tumor cells, time course; assay type: cell-based; settings: G129R 10 ug/ml
# Description: Primary mammary tumor cells were isolated from MMTV/neu transgenic mouse and cultured in the presence of G129R (10 ug/ml) or PRL (100 ng/ml) for 24, 48, 72, or 96 hrs. Specifically, tumor removed from an MMTV-neu mouse was digested to a single cell suspension and plated in 12-well plates at 1×10^5 cells/ml. Cells were allowed to adhere for 24 hours in growth media followed by 2 hours of serum-free media depletion. The cells were then either treated without (control) or with prolactin (100 ng/ml) or G129R (10 ug/ml). Cells were collected following 24, 48, 72, or 96 hours of treatment and the ALDH-1 activity was measured.
# [8] = system: HER2+/neu tumors implanted into female transgenic mice; test: Growth of implanted tumors in transgenic mice; assay type: in vivo, mouse; settings: 10 mg/kg i.p. daily, 50 days; ±SEM
# Description: In two separate experiments, tumors were isolated from female transgenic mice, sectioned into equivalent sized pieces and implanted into age-matched recipient female transgenic mice. Ten days after implantation, mice were randomized into either control (n=3-4) or G129R treated groups (n=4, 10 mg/kg, i.p. daily). The mice were then treated on a daily basis for 50 days and tumor volumes for the control and treated groups were monitored.
# [9] = system: lung metastases of HER2+/neu breast tumors; test: Lung metastases after removal of primary breast tumors in MMTV/neu mice; assay type: in vivo, mouse; settings: 200 ug/day i.p. for more than 40 days, vs untreated control, P<0.05
# Description: Primary breast tumors were removed from MMTV/neu transgenic mice. The mice were then treated either with PBS or G129R (200 ug/day, i.p.) for more than 40 days. When the secondary tumors (recurrence) grew to a certain size, the mice were sacrificed and the lungs were excised and fixed in Bouin's fixative to observe metastasis.
# [10] = system: phosphorylated HER2/neu protein; test: Dose-dependent response of phosphorylated HER2/neu in tumors in vivo (western blotting); parameters: species or system mouse; settings: i.p. for ten days; 2.5, 5, 10, 20 mg/kg/day tested
# Description: To determine a minimal dosage of G129R required for decreasing phosphorylation of HER^+/neu in vivo, a biopsy was removed from tumors of MMTV/neu transgenic mice and was used as a self-control baseline. The mice were then treated i.p. for ten days with either PBS or G129R at the following concentrations: 50, 100, 200 or 400 ug daily (2.5 mg/kg/day, 5 mg/kg/day; 10 mg/kg/day; or 20 mg/kg/day of G129R). The tumors were then harvested and processed for western blotting. The western blots were then probed with an antibody that detects phosphorylated HER2/neu protein and an antibody against beta-tubulin as a control for gel loading and western blotting transfer.
molecule,measurement,setting,value
"CC(=O)O[C@@]12CO[C@@H]1C[C@H](O)[C@@]1(C)C(=O)[C@H](O)C3=C(C)[C@@H](OC(=O)[C@H](O)[C@@H](NC(=O)OC(C)(C)C)c4ccccc4)C[C@@](O)([C@@H](OC(=O)c4ccccc4)[C@H]21)C3(C)C [docetaxel, reference compound]",number of secondary nodules (metastases) versus control,[1],suppressed the number of secondary nodules
same,size (weight) of tumors versus control,[1],suppressed the tumor growth
same,number of secondary nodules (metastases) versus control,[2],suppressed the number of secondary nodules
same,size (weight) of tumors versus control,[2],suppressed the growth of tumors
B1,ALDH1 activity in cancer cells isolated from treated animals,"[3]; 10 mg/kg i.p. for 5 or 10 days, vs PBS",significantly reduced
same,ALDH1 activity in cancer cells after ten days of treatment,"[3]; 10 mg/kg i.p., ten days",Practically no ALDH1 activity was detected
same,phosphorylated Neu protein in primary tumors,[4],significant decrease
same,phosphorylation of neu in secondary tumors,[4]; some phosphorylated neu still detected,decrease
same,mice highly responsive (virtually no phosphorylated HER2/neu detected),"[5]; of 10 mice, 10 day treatment",3 mice
same,mice moderately responsive,"[5]; of 10 mice, 10 day treatment",5 mice
same,nonresponsive mice,"[5]; of 10 mice, 10 day treatment",2 mice
same,mice moderately responsive (noticeable reduction in phosphorylated HER2/neu),"[5]; of 14 mice, 5 day treatment",4 mice
same,mice whose tumors showed drastic reduction in phosphorylated HER2/neu,"[5]; of 14 mice, 5 day treatment",5 mice
same,nonresponsive mice,"[5]; of 14 mice, 5 day treatment",5 mice
same,number of secondary nodules (metastases) versus control,[1],decreased the number of secondary nodules
same,size (weight) of tumors versus control,[1],decreased the size of tumors
same,ALDH1 activity in triple-negative breast cancer cells,[6],significantly reduced
same,reduction of ALDH1 activity versus control,[7]; 96 hrs,92.3%
same,ALDH1 activity over the time course,"[7]; 24, 48, 72, 96 hrs",steady decrease
same,final tumor volume smaller than control (first value of two experiments),[8],67.1%
same,final tumor volume smaller than control (second value of two experiments),[8],71.5%
same,final tumor weight reduced versus control (first value of two experiments),[8],61.3%
same,final tumor weight reduced versus control (second value of two experiments),[8],62.5%
same,percentage of animals with lung metastases,[9],significantly reduced
same,lowest dosage with inhibitory effect on phosphorylation of HER+/neu,[10],5 mg/kg/day
same,number of secondary nodules (metastases) versus control,[2],decreased the number of secondary nodules
same,size (weight) of tumors versus control,[2],decreased the size of tumors
